One substance from paper PMC3805332, “Synthesis of α-Glucan in Mycobacteria Involves a Hetero-octameric Complex of Trehalose Synthase TreS and Maltokinase Pep2” (ACS Chemical Biology, 2013) can be followed below.

Where two headings read alike, the source gives them in different places.

Assay [1] concerns the target M. tuberculosis trehalose synthase TreS (M. tuberculosis H37Rv) (UniProt P9WQ19). Description: AUC.
The target is the same in assay [2]. The assay can be described thus: AUC. The source holds these as a separate data set.

M. tuberculosis trehalose synthase TreS (M. tuberculosis H37Rv), sequence (P9WQ19 whole entry): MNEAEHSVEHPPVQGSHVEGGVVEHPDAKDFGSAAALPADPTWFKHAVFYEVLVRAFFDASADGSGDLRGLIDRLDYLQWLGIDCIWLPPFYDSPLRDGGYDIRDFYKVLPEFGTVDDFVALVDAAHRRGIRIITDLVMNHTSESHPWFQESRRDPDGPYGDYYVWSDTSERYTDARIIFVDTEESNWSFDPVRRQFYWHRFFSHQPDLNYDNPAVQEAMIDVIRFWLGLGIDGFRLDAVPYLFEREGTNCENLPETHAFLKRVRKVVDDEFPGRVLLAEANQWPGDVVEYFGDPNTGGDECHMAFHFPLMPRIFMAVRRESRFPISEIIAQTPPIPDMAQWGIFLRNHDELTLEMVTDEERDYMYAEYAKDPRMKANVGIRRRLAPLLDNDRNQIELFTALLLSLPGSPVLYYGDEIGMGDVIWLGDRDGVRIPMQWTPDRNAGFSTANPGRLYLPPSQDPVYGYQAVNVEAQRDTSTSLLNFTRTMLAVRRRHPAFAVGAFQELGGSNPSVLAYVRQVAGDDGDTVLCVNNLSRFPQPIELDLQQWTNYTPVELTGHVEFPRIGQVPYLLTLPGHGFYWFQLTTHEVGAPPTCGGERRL

“M. tuberculosis maltokinase Pep2 (from UniProt O07177 1-455) (enzyme)”: the stoichiometry N (Pep2 subunits per TreS tetramer) in assay [1] came out at 2; in assay [2] it was 4.
